# Assay results taken from patent US20240424117A1, “Paclitaxel Prodrug, Preparation Method and Application Thereof” (WEST CHINA HOSPITAL, SICHUAN UNIVERSITY, priority 2023, published 2024).
# Assays:
# Assay type in all cases: physicochemical
# [1] = Study on the stability of micelles in vitro (PBS or added glutathione, DLS); conditions: GSH added, 37° C. shaker, DLS (FIG. 5)
# Experimental: In order to study the stability of micelles in vitro, the micellar solution was dropped into PBS simulating the human physiological environment, or a certain amount of glutathione was added. All samples were placed in a 37° C. constant temperature shaker (110 rpm), and the stability of micelles was studied by dynamic light scattering at the pre-determined time points.
# [2] = Particle size, particle size distribution and zeta potential of micelles by dynamic light scattering; conditions: prodrug micelles in aqueous solution, 25° C.; for PDI / Size(nm): DLS
# Experimental: The particle size, particle size distribution and zeta potential of micelles were measured by Zetasizer Nano ZS Dynamic light scattering (DLS) potentiometer (Malvern, UK) at 25° C. and 90° scattering angle.
# [3] = Release performance of prodrug (dialysis, HPLC determination of paclitaxel); conditions: for time to almost complete release of paclitaxel: 37° C.; for change of release rate after the addition of GSH: with GSH (10 mM) versus without
# Experimental: The testing instrument was Agilent 1260 series (USA), with a reversed phase C18 column (4.6×100 mm). The mobile phase was acetonitrile/water (80/20), the column temperature was 30° C., the flow rate was 1.0 mL/min, and the detection wavelength was 227 nm.
# Firstly, HPLC was used to detect the response of PTX in this mobile phase. After accurately weighing a certain amount of paclitaxel, PTX was prepared with the mixed solvent of acetonitrile and ultrapure water (9/1, v/v) into a series of standard solutions at different concentrations. Linear regression was performed between the measured response peak area A and concentration C, to obtain the standard curve of the PTX solution. The curve equation was fitted, and the concentration-peak area curve equation of PTX was Y=25.025X, with a correlation coefficient of R^2=0.9996.
# 3 mL of drug-loaded micelles were loaded into a dialysis bag (MWCO=1000), and the release medium was PBS containing 30% ethanol (V/V) (pH 5.0 or 7.4). The release of paclitaxel from self-assembled nanoparticles of prodrug was investigated with or without the addition of glutathione (10 mM GSH). The specific procedures are as follows: 3 mL of prodrug nanoparticle solution (1 mg/mL) was placed into a dialysis bag (MW1000) and added to 30 mL of the release media, and then the entire system was transferred into a constant temperature shaker (37° C., 110 rpm). 1 mL of release solution was collected at different pre-determined time points, taking 3 parallel samples at each time point. After sampling, the same volume of pure PBS or PBS containing 10 mM GSH (10 Mm) was supplemented, and the drug concentration was determined by HPLC. The cumulative release was calculated using the following formula:
# [formula] • wherein R is the cumulative release amount; Vi is the total volume of the solution before the i-th sampling; Ci is the total concentration of the solution before the i-th sampling; Vsj is the jth sampling volume; Cj is the total concentration of the solution before the jth sampling, i=2, 3, 4 . . .; j=i−1.
# [4] = Transmission electron microscopy of micellar morphology; conditions: TEM (FIG. 3)
# Experimental: A small amount of micellar solution fully mixed under ultrasonic was added dropwise onto the copper mesh coated with Formvar film, and then dyed with 1% (w/v) phosphotungstic acid staining solution for 3 min. Subsequently, the excess liquid was absorbed with filter paper, and the copper mesh was allowed to dry naturally. Then, Tecnai G2 F20 S-TWIN transmission electron microscopy (FEI Corporation, USA) was used to observe the micellar morphology, and the acceleration voltage was 75 KV.
# [5] = acidic pH 5.0, with GSH (10 mM)
# [6] = neutral pH 7.4, with GSH (10 mM)
Substance,micelle state (particle size and PDI) after addition of glutathione [1],Zeta Potential(mV) [2],PDI [2],Size(nm) [2],"time to almost complete release of paclitaxel [3, 5]","time to almost complete release of paclitaxel [3, 6]",change of release rate after the addition of GSH [3],micelle morphology and dispersion [4]
paclitaxel-dithiodipropionic acid-polyethylene glycol [PDP],significantly disintegrated,−18.1 ± 0.8 mV,0.166 ± 0.003,129.07 ± 1.76 nm,144 h,120 h,significantly accelerated,
paclitaxel-dithiodipropionic acid-polyethylene glycol-RGD Peptide [PDPR],significantly disintegrated,−7.38 ± 0.8 mV,0.065 ± 0.012,114.63 ± 1.53 nm,144 h,120 h,significantly accelerated,uniform particle size and dispersion
paclitaxel-adipic acid-polyethylene glycol-RGD peptide [PAPR],,−9.91 ± 0.3 mV,0.110 ± 0.002,117.93 ± 5.57 nm,,,,
paclitaxel-adipic acid-polyethylene glycol [PAP],,−13.2 ± 0.6 mV,0.103 ± 0.037,109.43 ± 0.94 nm,,,,
